Values of other authors, collected in article PMC3674867.

Biological target: caspase-3 (Homo sapiens) (UniProt P42574)
Experiment: solid phase binding assay

UniProt P42574, sequence (P42574 176-277): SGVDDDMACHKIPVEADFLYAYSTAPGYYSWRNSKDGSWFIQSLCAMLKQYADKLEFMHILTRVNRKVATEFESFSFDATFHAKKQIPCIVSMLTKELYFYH

Kd: 3 nM
Substance: PAI-1 (from UniProt P05121)
